Residue numbers refer to the chain shown, from its start. Values joined by “and” are separate entries in the source; they are usually repeats but may differ in a detail not shown here. Equal values may be shown once.

Test [1] addresses human CD28 (Cambridge Biologics LLC Cat 03-01-0303) (human, UniProt P10747 19-152). Kind of test: ELISA on coated hCD28 IgG4. As to the method:
(§1) The binding properties of the purified antibodies were analyzed either using ELISA or SPR methods. For ELISA, corresponding antigens for each binding site in the trispecific binding protein were used to coat a 96-well Immuno Plate (Nunc 439454, Thermo Fisher Scientific) overnight at 4° C. using 2 μg/ml each antigen m PBS(pH7.4). The coated plate was blocked using 5% skim milk 12% BSA in PBS for one hour at RT, followed by washing with PBS+[…] three times (Aqua Max 400, Molecular Devices). Serial dilution of antibodies (trispecific and control Abs) were prepared and added onto the ELISA plates (100 μl/well in duplicate), incubated at RT for one hour, followed by washing 5 times with PBS+0.25% Tween 20.
(§2) The reaction was terminated by adding 50 μl 1M H₂SO₄, and OD₄₅₀ was measured using SpectraMax M5 (Molecular Devices) and analyzed using SoltMax Pro6.3 software (Molecular Devices). The final data was transferred to GraphPad Prism software (GraphPad Software, CA. USA), and plotted as shown. EC50 was calculated using the same software.

In test [2] the target is human CD28 (SPR of Example 4) (human, UniProt P10747 19-152, limits assumed). Kind of test: SPR; KD rounded to an integer; second value of the pair, taken for CD3low. As to the method:
(§3) Surface regenerate was conducted by injecting 10 mM Glycine-HCl pH 2.5 for 60 sec at 30 μl/min. […] Equilibrium dissociation constant (KD) was calculated using association rate constant (kₒₙ) and dissociation rate constant (koff).

The target in test [3] is T1, recombinant human CD38 (SPR of Example 4) (human, UniProt P28907 45-300, limits assumed). The test is described as above. As to the method: as §3
Test [4] concerns the target T1, recombinant human CD38 (SPR of Example …). Kind of test: SPR (column 'KD value against rec. protein by SPR (nM)'); second value of the pair, taken for CD3low.
The target in test [5] is T2, human CD3 (Cambridge Biologics LLC Cat #03-01-0051) (human, UniProt P07766 23-126; P09693 23-116).
T2 construct: the reagent may hold further CD3 chains
Description: ELISA on coated hCD3 γε IgG4; the arrow ends on the second curve from the right, which carries the small markers. Here is the method: as §1, §2

Test [6] addresses T3, cCD38-his (SEQ ID NO: 4) (cynomolgus monkey, UniProt Q5VAN0 46-301).
T3 construct: His-tagged soluble protein; also called cyno CD38-histag; cynoCD38::Histag
Kind of test: ELISA (column ELISA EC50 nM, cyno).

Test [7] has as its target T3, cCD38-his (SEQ ID NO: 4). Description: ELISA on cynoCD38::Histag [Cont.]. On the technique in general: ELISA stands for enzyme-linked immunosorbent assay.
In test [8] the target is T4, hCD38-his (SEQ ID NO: 2) (human, UniProt P28907 45-300).
T4 construct: His-tagged soluble protein derived from isoform A; also called human CD38-histag; hCD38::Histag
Kind of test: ELISA (column ELISA EC50 nM, hu).

In test [9] the target is T3, cCD38-his (SEQ ID NO: 4). Kind of test: SPR, mAb captured via anti-human Fc, soluble CD38-his injected. Here is the method:
(§4) The binding properties of the anti-huCD38 mabs were evaluated using a BIAcore 2000 (BIAcore Inc., Uppsala, Ni). […] The surface was regenerated between injections using 30 μL of 50 mM NaOH-1 M NaCl. Individual sensorgrams wore analyzed using BIAsimulation software.
In general terms: In SPR one partner is held on a chip, and binding of the other changes the refractive index at the surface.

Test [10] concerns the target T4, hCD38-his (SEQ ID NO: 2). Described as above. Here is the method: as §4
In test [11] the target is T5, cynomolgus monkey CD38 expressed on the cell surface (cynomolgus monkey, UniProt Q5VAN0 1-301).
T5 construct: whole, on cells; also called cCD38-expressing cells
Description: flow cytometry (column FACS EC50 nM, cyno). Here is the method:
(§5) The recombinant cell line was described by J. Deckket et al. 2014 Clin Cancer Res 20:4574-4583. […] Antibody binding was evaluated after centrifugation and resuspension of cells by adding 200 μL/well PBS 1% BSA and read using Guava® easvCyte™ 8HT Flow Cytometry System. Apparent KD and EC50 values were estimated using BIOST@T-BINDING and BIOST@T-SPEED software, respectively.
On the technique in general: Flow cytometry measures light scatter and fluorescence of single cells or particles in a stream.

Test [12] has as its target T6, human CD38 expressed on the cell surface (human, UniProt P28907 1-300).
T6 construct: whole, on cells; also called hCD38-expressing cells; huCD38
Description: flow cytometry on preB::300.19 cells, apparent KD. Here is the method: as §5

Test [13] has as its target T5, cynomolgus monkey CD38 expressed on the …. Kind of test: flow cytometry on preB::300.19 cells, apparent KD. As to the method:
as §5

The target of test [14] is T4, hCD38-his (SEQ ID NO: 2). Description: ELISA on hCD38::Histag.
In test [15] the target is T6, human CD38 expressed on the cell surface. Kind of test: flow cytometry (FACS) on 300.19 PreB hCD38 cells. As to the method:
as §5

Test [16] shares this target. Description: flow cytometry (column FACS EC50 nM, hu). Here is the method: as §5
In test [17] the target is T5, cynomolgus monkey CD38 expressed on the …. Description: flow cytometry (FACS) on 300.19 PreB cynoCD38 cells [Cont.]. Here is the method: as §5
Test [18] concerns the target T2, human CD3 (Cambridge Biologics LLC Cat …). Description: ELISA on coated hCD3 γε IgG4; the arrow ends on the rightmost curve, which carries the triangles. Here is the method:
as §1, §2

Test [19] has as its target human CD38 (Cambridge Biologics LLC Cat #03-01-0369) (human, UniProt P28907 43-300). Description: ELISA on coated hCD38-His. Here is the method: as §1, §2
The target in test [20] is T4, hCD38-his (SEQ ID NO: 2). Kind of test: ELISA on hCD38::Histag. The source holds these as a separate data set.
The target of test [21] is T3, cCD38-his (SEQ ID NO: 4). Description: ELISA on cynoCD38::Histag [Cont.]. The source holds these as a separate data set.

B1: Control CD38xCD3 antibody (bispecific antibody)
benchmark heavy chain 1 (binds CD38): EVQLVESGGGLVQPGGSLRLSCAASGFTFSYSWMNWVRQAPGKGLEWVSEINPQSSTINYATSVKGRFTISRDNSKNTLYLQMNSLRAEDTAVYYCARYGNWFPYWGQGTLVTVSSASTKGPSVFPLAPSSKSTSGGTAALGCLVKDYFPEPVTVSWNSGALTSGVHTFPAVLQSSGLYSLSSVVTVPSSSLGTQTYICNVNHKPSDTKVDKKVEPKSCDKTHTCPPCPAPPVAGPSVFLFPPKPKDTLMISRTPEVTCVVVDVKHEDPEVKFNWYVDGVEVHNAKTKPREEEYNSTYRVVSVLTVLHQDWLNGKEYKCKVSNKALPAPIEKTISKAKGQPREPQVYTLPPSREEMTKNQVSLTCDVSGFYPSDIAVEWESDGQPENNYKTTPPVLDSDGSFFLYSKLTVDKSRWEQGDVFSCSVMHEALHNHYTQKSLSLSPGK
benchmark heavy chain 2 (binds CD3): not shown
benchmark light chain (binds CD38): DIVMTQSPSSLSASVGDRVTITCRASQNVDTWVAWYQQKPGQSPKALIYSASYRYSGVPDRFTGSGSGTDFTLTISSLQPEDFATYFCQQYDSYPLTFGGGTKLEIKRTVAAPSVFIFPPSDEQLKSGTASVVCLLNNFYPREAKVQWKVDNALQSGNSQESVTEQDSKDSTYSLSSTLTLSKADYEKHKVYACEVTHQGLSSPVTKSFNRGEC
notes: also called benchmark control CD38×CD3 bispecific antibody
In the case of B1, the binding result in test [1] is on record as “no binding (tested: 10^4 pM)”.

B2: CD38VH1×CD28cvn×CD3low IgG4 (other)
VH 1: QVQLVQSGAEVVKPGASVKVSCKASGYTFTSYAMHWVKEAPGQRLEWIGYIYPGQGGTNYNQKFQGRATLTADTSASTAYMELSSLRSEDTAVYFCARTGGLRRAYFTYWGQGTLVTVSS
VL 1: DIVLTQSPATLSLSPGERATISCRASQSVSSYGQGFMHWYQQKPGQPPRLLIYGASSRATGIPARFSGSGSGTDFTLTISPLEPEDFAVYYCQQNKEDPWTFGGGTKLEIK
VH 2: QVQLQESGPGLVKPSQTLSLTCTVSGFSLSDYGVHWVRQPPGKGLEWLGVIWAGGGTNYNPSLKSRKTISKDTSKNQVSLKLSSVTAADTAVYYCARDKGYSYYYSMDYWGQGTTVTVSS
VL 2: DIVLTQSPASLAVSPGQRATITCRASESVEYYVTSLMQWYQQKPGQPPKLLIFAASNVESGVPARFSGSGSGTDFTLTINPVEANDVANYYCQQSRKVPYTFGQGTKLEIK
VH 3: QVQLVESGGGVVQPGRSLRLSCAASGFTFTKAWMHWVRQAPGKGLEWVAQIKDKSNSYATYYADSVKGRFTISRDNSKNTLYLQMNSLRAEDTAVYYCRGVYYALSPFDYWGQGTLVTVSS
VL 3: DIVMTQTPLSLSVTPGQPASISCKSSQSLVHNNGNTYLSWYLQKPGQSPQLLIYKVSNRFSGVPDRFSGSGSGTDFTLKISRVEAEDVGVYYCGQGTQYPFTFGGGTKVEIK
notes: also called CD38VH1×CD28evn×CD3low IgG4
With B2, the Kd in [2] was 34 nM; in test [3], 6 nM; in test [4], 6 nM. For the same molecule, the concentration giving a half-maximal response (EC50) – broadly, the concentration needed to bring the measured effect to its halfway point – in [5] was determined as 0.491 nM.

B3: mAb3 (antibody, human IgG1, kappa, V domains shown)
VH: B2 VH 1 with Y32F, A33N, Q55N
VL: DIVLTQSPATLSLSPGERATISCRASESVDSYGNGFMHWYQQKPGQPPRLLIYLASSRATGIPARFSGSGSGTDFTLTISPLEPEDFAVYYCQQNKEDPWTFGGGTKLEIKR
notes: also called antiCD38_C2-CD38-1_VH3-VL3
Take B3: the EC50 was 0.15 nM with cCD38-his (SEQ ID NO: 4) [6]; 0.15 nM with cCD38-his (SEQ ID NO: 4) [7]; 0.16 nM in the test with hCD38-his (SEQ ID NO: 2) [8]; 1.31 nM in test [11]; 0.16 nM in the test with hCD38-his (SEQ ID NO: 2) [14]; 0.78 nM and 0.117 µg/mL in test [15]. The EC50 in test [16] is 0.78 nM; in test [17], 1.31 nM. Moreover, the Kd with cCD38-his (SEQ ID NO: 4) [9] amounted to 0.71 nM; with hCD38-his (SEQ ID NO: 2) [10] it was 0.483 nM; in test [12], 0.78 nM; in test [13] it was 1.31 nM. The off-rate (koff) (as a rule, a measure of how fast the partners let go of each other) in the test with cCD38-his (SEQ ID NO: 4) [9] amounted to 0.000129 s⁻¹; in the test with hCD38-his (SEQ ID NO: 2) [10], 0.000283 s⁻¹.

B4: CD38VH1×CD28sup×CD3low IgG4 (other)
VH 1: B2 VH 1
VL 1: B2 VL 1
VH 2: QVQLVQSGAEVVKPGASVKVSCKASGYTFTSYYIHWVRQAPGQGLEWIGSIYPGNVNTNYAQKFQGRATLTVDTSISTAYMELSRLRSDDTAVYYCTRSHYGLDWNFDVWGKGTTVTVSS
VL 2: DIQMTQSPSSLSASVGDRVTITCQASQNIYVWLNWYQQKPGKAPKLLIYKASNLHTGVPSRFSGSGSGTDFTLTISSLQPEDIATYYCQQGQTYPYTFGQGTKLEIK
VH 3: B2 VH 3
VL 3: B2 VL 3
In [18], B4 displayed an EC50 of 1.04 nM. In addition, the EC50 (read off the curve) (in general, the concentration needed to bring the measured effect to its halfway point) in [19] was ~6 nM. In addition, the results for the Kd in [2], in [3] and in test [4] were 4 nM, 6 nM and 6 nM, respectively.

B5: mAb5 (antibody, human IgG1, kappa, V domains shown)
VH: B2 VH 1 with V20M, Y32F, A33N, Q55N, L83I
VL: B3 VL
notes: also called antiCD38_C2-CD38-1_VH6-VL3
Take B5: the EC50 in the test with cCD38-his (SEQ ID NO: 4) [6] was 0.14 nM; in the test with hCD38-his (SEQ ID NO: 2) [8], 0.14 nM; with hCD38-his (SEQ ID NO: 2) [20], 0.14 nM; in test [11], 1.06 nM; in [15], 0.68 nM and 0.102 µg/mL; in [16], 0.68 nM. Also, the EC50 was 0.14 nM in the test with cCD38-his (SEQ ID NO: 4) [21]; 1.06 nM and 0.16 µg/mL in [17]. Further, the Kd was found to be 0.563 nM in the test with cCD38-his (SEQ ID NO: 4) [9], 0.312 nM in the test with hCD38-his (SEQ ID NO: 2) [10], 0.68 nM in [12] and 1.07 nM in test [13]. For the same molecule, the dissociation rate constant (koff) in the test with cCD38-his (SEQ ID NO: 4) [9] came out at 0.000125 s⁻¹; with hCD38-his (SEQ ID NO: 2) [10], 0.000333 s⁻¹.

The values are drawn from patent US20220041746A1 (Sanofi, published 2022).
